B1: 4Ig: four immunoglobulin-like domains of Neogenin, amino acids 1 to 383 of Accession No. AAC59662 (SEQ ID NO:1) (protein, listed as Gallus gallus)
chain: RSGPRSPLTGSVVRTFTPFYFLVEPMDILSVRGASVIMNCSSYCETPPKIEWKKDGTLLNLVSDDRRQLLPDGSLLINSVVHSKHNKPDEGYYQCVATVESLGSIVSRTAKLTVAGLPRFTSQPELSSVYKGNSAILNCEVNVDLAPFVRWEQDRQPLSLDDRVFKLPSGALLIGNATDTDGGFYRCVIESGGTPKYSEEAELKILPDPEEPQSLVFVRQPSSLTKVTGQNAVFPCVAGGFPTPYVRWTKNGEELITEDSERFALRAGGSLLISDVTEEDVGTYTCIADNENETIEAQAELAVQVPPEFLKRPANIYAHESMDIVFECEVTGKPTPTVKWVKNGDVVIPSDYFKIVKEHNLQVLGLVKSDEGFYQCIAENDVGNAQAGAQLIILDLDVAIPTLPPTSLTSATNDHLAPATTGPLPTAPRDVVATLVSTRFIRLTWRTPVSDPQGDNLTYSIFYTKEGINRERVENTSRPGETQVMIQNLMPETVYVFRVVAQNKHGHGESSAPLKVATQPEVQLPGPAPNIRAYAGSPTSVTVTWETPLSGNGEIQNYKLYYMEKGQDSEQDVDVAGLSYTITGLKKYTEYSFRVVAYNKHGPGVSTQDVVVRTLSDVPSAAPQNLTLEARNSKSIMLHWQPPPAGTHSGQITGYKIRYRKVSRKSDVTESVGGTQLFQLIEGLERGTEYNFRIAAMTVNGTGPATDWVSAETFESDLDESRVPEVPSSLHVRPLVTSIVVSWTPPENQNIVVRGYAIGYGIGSPHAQTIKVDYKQRYYTIENLDPSSHYVITLKAFNNVGEGIPLYESAVTRPHSDTSEVDLFVINAPYTPVPDPSPMMPPVGVQASILSHDTIRITWADNSLPKNQKITDARYYTVRWKTNIPANTKYKTANATTLSYLVTGLKPNTLYEFSVMVTKGRRSSTWSMTAHGTTFELVPTSPPKDVTVVSKEGKPRTIIVNWQPPSEANGKITGYIIYYSTDVNAEIHDWVIEPVVGNRLTHQIQELTLDTPYYFKIQARNSKGMGPMSEAVQFRTPKAESSDKMPNDQASGSAGKGSRPVDVGPDYKPPLSGSNSPHGSPTSPLDSNMLLVIIVSVGVITIVIVVIVAVFCTRRTTSHQKKKRAACKSVNGSHKYKGNSKDVKPPDLWIHHERLELKPIDKSPDPNPIMTDTPIPRNSQDITPVDNSMDSNIHQRRNSYRGHESEDSMSTLAGRRGMRPKMMMPFDSQPPQPVISAHPIHSLDNPHHHFHSGSLASPTRSYLHHQVSPWPVGTSMSHSDRANSTESVRNTPSSDTMPASSSQPCADHQDPDSSSGAYLGSAQEEDAAQSLPTAHVRPSHPLKSFAVPAVPAAGSAYDPTLPSTPLLTQQAPSHPVHSVKTASIGTLGRTRPPMPVVVPSAPDVQETTRMLEDSESSYEPDELTKEMAHLEGLMKDLNAITTA
modifications: Neogenin - Accession No. AAC59662

Assays:
[1] = tested on: corticospinal tract axons; experiment: Spinal cord injury, anterograde axonal tracing of the corticospinal tract with BDA; type: in vivo, rat; details: for maximal distance of labeled fibers caudal to the lesion site: 4IG IV or MBCD IP; for average length of the longest axon: BDA tracing post-SCI, respective controls 18±7 and 128±118 μm
Experimental: To visualize axons from the CST, anterograde axonal tracing with BDA was performed 6 weeks after SCI following completion of the functional assessment. Animals (n=3-4) from each group were randomly selected for BDA injection. Under deep anesthesia with 2% isofluorane with 1:2 NO:O2, rats were positioned in a stereotaxic frame and craniotomy was performed bilaterally to expose the sensorimotor cortex. BDA (10%, 10,000 MW; Invitrogen (Life Technologies)) was dissolved in 0.01M PBS and injected at 6 sites in each sensorimotor cortex using the following coordinates in reference to bregma: 1) 0.5 mm posterior and 1 mm lateral, 2) 0.5 mm posterior and 2 mm lateral, 3) 1 mm posterior and 1 mm lateral, 4) 1 mm posterior and 2 mm lateral, 5) 1.5 mm posterior and 1 mm lateral, 6) 1.5 mm posterior and 2 mm lateral. At each site, 1 μl of BDA was injected 1.2 mm from the surface of the cortex. Injections were made stereotactically with the aid of an operating microscope using a motorized microinjector at a rate of 0.5 μl/min with a 10 μl Hamilton syringe and a 32-gauge needle. The needle was left in place for an additional 2 min after injection to prevent leakage and the skin was closed with 6-0 Vicryl. Animals were allowed to survive for 3 more weeks and then intracardially perfused with 4% paraformaldehyde in 0.1 M PBS. BDA tissue including a 1.5 cm segment of tissue encompassing the lesion site was excised and processed as either 20 μm cryosections on slides or free-floating 30 μm sections. Free-floating sections were collected in 24-well plates containing PBS. Sections were pre-treated with 1% H2O2 in methanol for 10 min at RT, rinsed with PBS containing 0.5% Triton X for 30 min, and incubated in avidin-biotin peroxidase complex (Vectostain Elite ABC Kit Standard, Vector Laboratories, Burlington, ON, Canada) for 1 h at RT. Slides were washed with PBS, and then incubated with fluorescent Alexa-488 goat anti-mouse secondary antibody (1:500; Invitrogen (Life Technologies)) for 1 h at RT and coverslipped with Vectashield mounting medium containing DAPI (4′, 6-diamidino-2-phenyl-indole) (Vector Laboratories, Burlington, Ontario, Canada) nuclear counterstain.

4Ig-domain of DCC = experiment: AP binding assay on coated DCC-4Ig; details: closest Neogenin homologue, specificity control
Experimental: (A) Different RGMa-AP proteins were incubated on wells coated with the 4Ig 6FNIII or BSA. […] Data were average±SEM (n=3 independent experiments), *p<0.005. (B) Quantification of a binding assay where 4Ig-AP and 6FNIII-AP proteins were assayed on wells coated with proteins from different RGMa regions. […] Thus, two N-RGMa fragments were identified (N-Raft and N-RGMa77-113) that bound the 4Ig and 6FNIII domains in Neogenin, respectively. C-RGMa proteins and full length RGMa only bound 6FNIII. Data were average±SEM (n=3 independent experiments), *p<0.005. […] Quantification of a binding assay where N-RGMa-AP was assayed on wells coated with proteins DCC-4Ig and Neogenin-4Ig. In this experiment Neogenin-4Ig but not DCC-4Ig interacted with N-Raft-AP. Data were average±SEM (n=4 independent experiments), *p<0.005. (D) Cis-interaction between the 4Ig domain of Neogenin and N-Raft is required for localization of Neogenin in lipid rafts. HEK-293 cells were transfected with Neogenin and RGMa constructs. BMP2 (100 nM) was added to the medium 1 hour before cells were collected. Western blotting was performed following lipid raft fractionation. Flotillin was used as a marker for lipid raft fractions, whereas the transferrin receptor (TfR) was used as a marker for heavy membrane-fractions. Every experiment was repeated twice. […]

[2] = tested on: retinal axons (axonal pathfinding); experiment: In ovo electroporation and DiI tracing of axonal paths; type: in vivo, chick; details: ectopic expression in the eye at E2
Experimental: Eggs (White Leghorn) were incubated at 38° C. in a high humidity chamber. A small amount of viral solution (viral titers of 1×10^8 IU/ml) was mixed with 1/10 volume of 0.25% fast green solution (Molecular Probes) and injected in the tectum at E1.5. Eggs were further incubated until E15, when a small DiI crystal (Molecular Probes) was placed in the temporo-dorsal part of the right eye. At E17, embryos were sacrificed and the tecta fixed in 4% PFA. DiI tracing was viewed under the microscope (Olympus BX61) after cutting the tecta in half. Digital Images of the tecta were taken and processed using Photoshop (Adobe). Alternatively, plasmid constructs were electroporated into the optic vesicle to restrict expression to the eye and tracing performed as above.
To study the effect of the interaction between 4Ig and N-Raft on axonal paths in vivo, 4Ig, N-Raft, and the control NRGMa^50-99 were ectopically expressed and axonal pathfinding was examined. To ensure that the treatments affected growing axons and not their environment, when electroporation was performed, the application of the electric field was narrowed to the optic vesicle at E2, thereby restricting expression to the eye and retinal axons (FIG. 3G).

retinal whole mounts = experiment: Oxygen Glucose Deprivation (OGD) in retinal whole mounts, PI staining; type: cell-based; details: OGD in presence of 4Ig
Experimental: Specifically, retinal whole mounts were subjected to OGD for 1 hour. After ischemia, whole mounts were incubated for 24 hours and dead cells were identified using propidium iodide (PI) staining.
To determine whether Neogenin required lipid raft association to induce cell death, OGD was performed on retinal whole mounts in the presence of 4Ig, which as described above, prevented Neogenin localization into lipid rafts.

| Molecule | maximal distance of labeled fibers caudal to the lesion site [1] | average length of the longest axon [1] [μm] | interaction with the 4Ig-domain of DCC (4Ig-domain of DCC) | electroporations that caused aberrant axonal paths [2] [%] | fiber length at 6 weeks compared to 4 weeks following injury ([1]; IV-injection) | reduction of the number of dead neurons compared to controls (retinal whole mounts) |
| --- | --- | --- | --- | --- | --- | --- |
| methyl-β-cyclodextrin [MβCD, reference compound] | about 4 mm | 2195±335 |  |  |  |  |
| N-Raft: peptide spanning amino acids 28-73 of RGMa (SEQ ID NO:2) (SPCKILKCNSEFWAATSGSHHLGAEETPEFCTALRAYAHCTRRTAR; N-Raft - amino acids 28-73 of RGMa) |  |  | No significant interaction | 85.7 |  |  |
| B1 | about 4 mm | 2875±228 |  | 100 | significantly longer at 6 weeks | two-fold |

— patent US11497796B2, “Agents directed against a cis RGMa/neogenin interaction or lipid rafts and use of the same in methods of treatment” (UNIVERSITY HEALTH NETWORK, priority 2013, dated 2022)
